Results as given in patent US10323085B2, “Methods of treating fibromyalgia” (Teva Pharmaceuticals International GmbH, priority 2008, dated 2019).

T1: adrenomedullin (Homo sapiens, UniProt P35318)
T1 sequence (P35318 95-146 limits assumed): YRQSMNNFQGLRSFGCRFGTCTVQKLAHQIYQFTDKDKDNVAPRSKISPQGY

T2: amylin (Homo sapiens, UniProt P10997)
T2 sequence (P10997 34-70 limits assumed): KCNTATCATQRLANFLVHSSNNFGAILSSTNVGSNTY

T3: calcitonin (Homo sapiens, UniProt P01258)
T3 sequence (P01258 85-116 limits assumed): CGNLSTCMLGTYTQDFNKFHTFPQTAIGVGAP

B1: G2: anti-rat CGRP mouse monoclonal antibody (Wong H C et al. Hybridoma 1993); variable regions SEQ ID Nos. 19 and 20; murine tool (antibody, V domains shown)
VH: EVQLQQSGPELVKPGASVKMSCKASGYTFTSSVMHWVKQKPGQGLEWIGYINPYNDGTKYNEKFKGKATLTSDKSSSTAYMELSSLTSEDSAVYYCAKGGNDGYWGQGTTLTVSS
VL: EIVLTQSPTTMAASPGEKITITCSASSSISSIYLHWYQQKPGFSPKVLIYRASNLASGVPARFSGSGSGTSYSLTIGTMEAEDVATYYCQQGSTIPFTFGSGTKLEIK
modifications: Synthetic polypeptide, Antibody G2 heavy chain variable region; Synthetic polypeptide, Antibody G2 light chain variable region
notes: anti-rat CGRP mouse monoclonal antibody (Wong H C et al. Hybridoma 1993); murine tool

Assays:
[1] = tested on: CGRP1-receptor in SK-N-MC cells; test: Binding assay: blocking human α-CGRP from binding to the CGRP1-receptor in SK-N-MC cells; conditions: FIG. 4
adrenomedullin = target: T1, adrenomedullin; test: Solution competition by Biacore (specificity); format: binding; conditions: pre-incubated with an excess of adrenomedullin
Excerpt: (§1) We determined the specificity of antibody G1 to human or rat CGRP by using the Biacore chip to “probe” the free concentration of a premixed complex of mAb+peptide.

amylin = target: T2, amylin; test: Solution competition by Biacore (specificity); format: binding; conditions: pre-incubated with an excess of amylin
Excerpt: as §1

calcitonin = target: T3, calcitonin; test: Solution competition by Biacore (specificity); format: binding; conditions: pre-incubated with an excess of calcitonin
Excerpt: as §1

human CGRP = test: Solution competition by Biacore (specificity); format: binding; conditions: pre-incubated with human CGRP
Excerpt: as §1

rat CGRP = test: Solution competition by Biacore (specificity); format: binding; conditions: pre-incubated with rat CGRP
Excerpt: as §1

[2] = target: T4, 25-37 human α-CGRP fragment (Homo sapiens, UniProt P06881); test: Alanine scan of C-terminal CGRP fragment (CGRP 25-37) by Biacore, epitope identification; format: binding; conditions: 25° C., Biacore 3000
T4 construct: (CGRP 25-37)
Experimental: Interaction analysis was conducted at 25° C. on a Biacore 3000™ system equipped with streptavidin-coated (SA) sensor chips (Biacore AB, Uppsala, Sweden) using a standard Biacore running buffer (HBS-P). […] Each amino acid between position 27-37 was then mutated individually to alanine and expressed the fold loss in affinity compared to the wild-type fragment. N-biotinylated fragments were captured on individual flow cells at low levels (typically 100 response units) to provide the reaction surfaces, while an unmodified flow cell served as a reference channel. Purified Fab fragments of antibody G1 were generated. Fab fragments were titrated over the chip using 1 μM as the top concentration of a two-fold dilution series. Association and dissociation phases were monitored at 100 μl/min for 1 minute and 5 minutes respectively. Surfaces were regenerated with a mixture of 35% ethanol+25 mM NaOH+0.5M NaCl.

rats = test: Indicators of physical or psychological dependence, long term observation of dosed animals; conditions: rat, in vivo
CGRP = test: Neurogenic skin flare rat model (saphenous nerve stimulation, laser Doppler blood flow); format: in vivo; conditions: for start of significant decrease in blood flow response post dose: intravenous; for development of neurogenic flare in vivo: rat
Experimental: Using a neurogenic skin flare rat model the efficacy of G1 was tested for its ability to block CGRP effect in vivo. The saphenous nerve in the rat is electrically stimulated causing CGRP release from nerve endings and leading to vasodilation, the resulting changes in blood flow can be measured using laser Dopler methods.
Changes in blood flow parameters were expressed as the area under the curve (AUC, change in arbitrary Doppler flux units multiplied by time). CGRP receptor antagonist CGRP8-37 (400 nmol/kg, i.v.) was used as a positive control to validate the specificity of the model (data not shown). To determine the effect of G1 prior to dosing for each animal, the baseline blood flow response to stimulation was established with two saphenous nerve stimulations each 30 minutes apart. Rats were treated with G1 after the blood flow response of the second stimulation had returned to baseline levels (approximately 10 minutes post stimulation) and an additional four stimulations at 30 minute intervals were performed.

MRMT-1 injected rats [3] = test: Bone cancer pain model (MRMT-1), mechanical hypersensitivity to von Frey stimuli; format: in vivo, rat; conditions: IV 10 mg/kg at day 9
Experimental: Tumour cells used are syngeneic MRMT-1 rat mammary gland carcinoma cells donated from the Novartis Institute (London). The cells are cultured in RPMI 1640 (Gibco) with 10% foetal bovine serum (FCS), 1% L-glutamine 2% penicillin/streptomycin (Gibco). Two brief washes are carried out with 0.1% w/v trypsin to release those cells which adhere to the flask, and then quenched with an equal volume of 10% FCS, followed by centrifugation of the solution for 3 minutes at 1200 rpm. The pellet is washed and resuspended in Hanks medium, and the concentration of cells calculated using a Haemocytometer, with trypan blue staining to determine the number of dead MRMT-1 cells. The final concentration of 3×10^3 cells was then obtained by diluting the solution according to the number of cells seen. The final solution was kept on ice until time of injection.
Male Sprague-Dawley rats weighing close to 170 g at time of surgery were used to generate the cancer model. Anaesthesia was induced in the rats using halothane or isoflurane (1.5-2%) 66% N2O and 33% O2, the leg was shaved over the appropriate area and disinfected with chlorhexidine (Animalcare Ltd, UK.). A small incision in order to expose the anterior-medial surface of the distal end of the tibia was made. A hole was bored in the periosteum using a 0.7 mm dental drill, through which a 2 cm polythene tubing was fed 1 cm into the intra-medullar cavity of the tibia. Using a Hamilton syringe the pre-prepared 10 μl of 3×10^3 MRMT-1 cells were injected through the tubing into the cavity. The tubing was then removed and the hole plugged using bone restorative material (IRM, Dentsply USA). The wound was then irrigated with 0.9% saline and closed with a metal clip. The sham animals were operated upon using the same procedure but injected with 10 μl of Hank's solution alone. The animals were placed in a thermoregulated recovery box until such time that they were able to be placed back in their housing cages.
Testing behaviour towards mechanical stimuli uses von Frey filaments (North Coast Medical Inc., USA) to the plantar surface of both the ipsilateral and contralateral hindpaw. The rats were placed in a Perspex cubicle with a mesh floor and allowed to acclimatise for 10 minutes. Each von Frey was applied 10 times to each hindpaw alternating between the ipsilateral and contralateral, for duration of 2-3 seconds each time. […] A nocifensive response (a lift) is defined as a brisk withdrawal of the hindpaw and the number of lifts for each paw at each von Frey are recorded (maximum of 10) and expressed as a percentage response. An assessment of the efficacy of rodent anti-CGRP antibody G2 in attenuating hypersensitivity to a wide variety of static mechanical, cooling and integrated stimuli was carried out as well as the background basal pain behaviours in this validated model of cancer induced bone pain. The responses measured are attenuated by standard analgesic treatments such as morphine and gabapentin. All measures were made by the same scientist in a blind fashion—blinded to the identity of the compound/control and to the treatment of the animal.
G2-was given IV at 10 mg/kg at day 9 and rats were tested at 2 hrs and then on days 10, 11, 12 and then 14-18 days post treatment (FIG. 1).

MRMT-1 injected rats [4] = test: Rota rod test for motor impairment in the bone cancer pain model; format: in vivo, rat; conditions: MRMT-1 injected rats treated at day 9 post surgery
Excerpt: A further end point tested in the bone cancer pain model was ambulation (by rotarod). The test is to obtain a measurement of locomotor impairment comparing antibody treated with control animals, each subjected to the same test under the same conditions. The rota rod test consists of 4 rotateable drums divided by flanges with a motor-driven drum accelerated (Ugo Basile, Comerio, VA, Italy). For a given trial, a rat is placed on the rotating rod and the rotation speed is accelerated from 4 to 16 rpm in 2 min. The time of maximal performance is typically set at 120 sec. Each animal generally receives three trials per day, at 1 hr intervals, for several consecutive days post-surgery. The latency to fall off the rod is represented as mean of the three trials.

complex formation with peptide (adrenomedullin)	complex formation with peptide (amylin)	complex formation with peptide (calcitonin)	affinity of N-biotinylated 25-37 human α-CGRP fragment compared with full-length N-biotinylated human α-CGRP [2]	Molecule	inhibition of binding of α-CGRP to the CGRP1 receptor [1]	Biacore response after pre-incubation with peptide (human CGRP)	Biacore response after pre-incubation with peptide (rat CGRP)	CNS penetration (rats)	start of significant decrease in blood flow response post dose (CGRP; 1 mg/kg) [min]	start of significant decrease in blood flow response post dose (CGRP; 10 mg/kg) [min]	inhibits neurogenic flare in the skin starting from, post-treatment (CGRP; FIG. 9, intravenous administration) [min]	development of neurogenic flare in vivo (CGRP)	hypersensitivity to von Frey 15 g vs vehicle treated group (MRMT-1 injected rats [3]; 2 and 3 days after drug administration)	hypersensitivity to von Frey 15 g vs vehicle treated group (MRMT-1 injected rats [3]; 2 hours post-injection)	hypersensitivity to von Frey 15 g vs vehicle treated group (MRMT-1 injected rats [3]; 6 days after G2 administration)	Withdrawal frequencies to von Frey 8 g vs vehicle treated group (MRMT-1 injected rats [3]; day 14 (day 5 post-G2 injection))	Withdrawal frequencies to von Frey 8 g vs vehicle treated group (MRMT-1 injected rats [3]; days 11 and 12 (days 2 and 3 after injection))	Withdrawal frequencies to von Frey 8 g (MRMT-1 injected rats [3]; two hours after injection)	latency to fall from the rotarod during forced ambulation vs vehicle group (MRMT-1 injected rats [4])
did not form a complex	did not form a complex	did not form a complex	same affinity	G1: humanized IgG2Δa monoclonal anti-CGRP antagonist antibody from expression vectors ATCC PTA-6867 and PTA-6866; variable regions SEQ ID Nos. 1 and 2	inhibits the binding	fully blocked	fully blocked	Neither antibody G1 nor antibody G2 demonstrate CNS penetration	120	90	90	prevent the development of neurogenic flare	–	–	–	–	–	–	–
–	–	–	–	B1	–	–	–	Neither antibody G1 nor antibody G2 demonstrate CNS penetration	–	–	–	prevent the development of neurogenic flare	significance seen	reduction in hypersensitivity	reductions were lost	no discernible difference	significantly reduced	reduced	No differences were found
